Patent publication US20060104980A1

How the values were obtained:
[1] = target: denatured HCV 1b E2 protein (Q1b) (Hepatitis C virus genotype 1b); experiment: GNA capture ELISA, denatured against native E2 (FIG. 9)
[2] = target: HCV 1b E2 (Q1b) bound to GST-CD81-LEL (Hepatitis C virus genotype 1b; human) (UniProt P60033); experiment: ELISA, 1b E2 captured by CD81-LEL; 50% of maximum binding
[3] = target: HCV 1b E2 construct sf1b-E2 (amino acids 384-661 in pDisplay) (influenza virus; Hepatitis C virus genotype 1b); experiment: GNA capture ELISA, HEK-293 extracts
[4] = target: HCV 1b E2 deletion construct pDN-470 (Hepatitis C virus genotype 1b) (UniProt Q9WMX2); experiment: GNA capture ELISA, HEK-293 extracts
[5] = target: HCV 1b E2 deletion construct pDN-447 (Hepatitis C virus genotype 1b) (UniProt P29846); experiment: GNA capture ELISA, HEK-293 extracts
[6] = target: HCV 1b E2 construct sf1b-E2 (amino acids 384-661 in pDisplay) (influenza virus; Hepatitis C virus genotype 1b); experiment: flow cytometry, CHO cells expressing sf1b-E2, 10 ug/ml
[7] = target: HCV E2 1a protein produced in mammalian cells (Rosa et al.) (Hepatitis C virus genotype 1a); experiment: NOB assay
[8] = target: HCV E2 protein of genotype 1a expressed by vaccinia virus construct Q1a (Hepatitis C virus genotype 1a); experiment: competition on GNA-captured E2; 20 µg/ml competitor against biotinylated CBH-4G
[9] = target: HCV 1b E2 construct sf1b-E2 (amino acids 384-661 in pDisplay) (influenza virus; Hepatitis C virus genotype 1b); experiment: flow cytometry, CHO cells expressing sf1b-E2
[10] = target: HCV 1b E2 deletion construct pDC-644 (Hepatitis C virus genotype 1b); experiment: GNA capture ELISA, HEK-293 extracts
[11] = target: HCV 1b E2 deletion construct pDC-644 (Hepatitis C virus genotype 1b); experiment: flow cytometry, transiently transfected HEK-293 cells, 10 ug/ml
[12] = target: HCV 1b E2 deletion construct pDN-470 (Hepatitis C virus genotype 1b) (UniProt Q9WMX2); experiment: as above
[13] = target: HCV 1b E2 deletion construct pDC-579 (Hepatitis C virus genotype 1b); experiment: as above
[14] = target: HCV 1b E2 deletion construct pDN-447 (Hepatitis C virus genotype 1b) (UniProt P29846); experiment: as above
[15] = target: HCV E2 1a protein produced in mammalian cells (Rosa et al.) (Hepatitis C virus genotype 1a); experiment: NOB assay, inhibition of E2 binding to CD81 expressing Molt-4 cells, flow cytometry
[16] = target: HCV E2 protein of genotype 1a expressed by vaccinia virus construct Q1a (Hepatitis C virus genotype 1a); experiment: competition ELISA; 20 µg/ml competitor against 2 µg/ml biotinylated CBH-2
[17] = target: HCV E2 protein of genotype 1b expressed by vaccinia virus construct Q1b (Hepatitis C virus genotype 1b); experiment: competition ELISA; 25 µg/ml competitor against 5 µg/ml biotinylated CBH-5
[18] = target: HCV E2 protein of genotype 1a expressed by vaccinia virus construct Q1a (Hepatitis C virus genotype 1a); experiment: as above
[19] = target: HCV E2 protein of genotype 1b expressed by vaccinia virus construct Q1b (Hepatitis C virus genotype 1b); experiment: competition ELISA; 20 µg/ml competitor against 2 µg/ml biotinylated CBH-2
[20] = target: HCV E2 protein of genotype 2b expressed by vaccinia virus construct Q2b (Hepatitis C virus genotype 2b); experiment: as above
[21] = target: HCV E2 protein of genotype 2a expressed by vaccinia virus construct Q2a (Hepatitis C virus genotype 2a); experiment: as above
[22] = target: HCV E2 protein of genotype 1b expressed by vaccinia virus construct Q1b (Hepatitis C virus genotype 1b); experiment: competition ELISA; competitor CBH-5 against biotinylated CBH-2
[23] = target: HCV E2 protein of genotype 2b expressed by vaccinia virus construct Q2b (Hepatitis C virus genotype 2b); experiment: as above
[24] = target: HCV E2 protein of genotype 2a expressed by vaccinia virus construct Q2a (Hepatitis C virus genotype 2a); experiment: as above
[25] = target: HCV E2 protein of genotype 1a expressed by vaccinia virus construct Q1a (Hepatitis C virus genotype 1a); experiment: as above
[26] = target: HCV E2 protein of genotype 1b expressed by vaccinia virus construct Q1b (Hepatitis C virus genotype 1b); experiment: competition ELISA; competitor CBH-2 against biotinylated CBH-5
[27] = target: HCV E2 protein of genotype 1a expressed by vaccinia virus construct Q1a (Hepatitis C virus genotype 1a); experiment: as above

Row | Substance | OD [3] [od] | OD [4] [od] | OD [5] [od] | mean fluorescence [6] | percent inhibition of biotinylated CBH-4G binding [8] [%] | OD [10] [od] | mean fluorescence [11] | mean fluorescence [12] | mean fluorescence [13] | mean fluorescence [14] | IC50 [15] [µg/mL] | percent inhibition of biotinylated CBH-2 binding [16] [%] | percent inhibition of biotinylated CBH-2 binding [19] [%] | percent inhibition of biotinylated CBH-2 binding [20] [%] | percent inhibition of biotinylated CBH-2 binding [21] [%] | further results
1 | HMAb CBH-17 (antibody) | > 0.5 | > 0.5 | > 0.5 | 23 | < 50 | – | – | – | – | – | – | – | – | – | – | percent of reactivity retained with denatured E2 [1]: 90%; EC50 [2]: 3 µg/mL; IC50 [7]: > 25 µg/mL; fold reduced staining relative to the other HMAbs [9]: 10 fold
2 | HMAb CBH-4B (antibody) | > 0.5 | > 0.5 | > 0.5 | 241 | < 50 | > 0.5 | 18 | 9 | 2 | 21 | – | – | – | – | – | EC50 [2]: 0.4 µg/mL; IC50 [7]: > 25 µg/mL
3 | HMAb CBH-7 (antibody) | > 0.5 | > 0.5 | > 0.5 | 303 | < 50 | > 0.5 | 27 | 14 | 2 | 26 | 7 | 60 | – | – | – | –
4 | HMAb CBH-5 (antibody) | > 0.5 | – | – | 546 | < 50 | > 0.5 | 28 | 2 | 2 | 2 | 2 | > 75 | > 75 | > 75 | > 75 | percent inhibition of biotinylated CBH-5 binding [17]: 85%; percent inhibition of biotinylated CBH-5 binding [18]: 85%; percent inhibition of biotinylated CBH-2 binding [22]: 80%; percent inhibition of biotinylated CBH-2 binding [23]: 80%; percent inhibition of biotinylated CBH-2 binding [24]: 80%; percent inhibition of biotinylated CBH-2 binding [25]: 80%
5 | HMAb CBH-2 (antibody) | > 0.5 | – | – | 338 | < 50 | 0.1 to 0.5 | – | – | – | – | 5 | > 75 | > 75 | > 75 | > 75 | percent inhibition of biotinylated CBH-5 binding [26]: 50%; percent inhibition of biotinylated CBH-5 binding [27]: 50%
6 | HMAb CBH-8C (antibody) | > 0.5 | – | – | 282 | < 50 | > 0.5 | – | – | – | – | 10 | > 75 | > 75 | > 75 | > 75 | –
7 | HMAb CBH-8E (antibody) | > 0.5 | – | – | 408 | < 50 | 0.1 to 0.5 | – | – | – | – | 8 | > 75 | > 75 | > 75 | > 75 | percent inhibition of biotinylated CBH-5 binding [17]: 75%; percent inhibition of biotinylated CBH-5 binding [18]: 75%
